Experiment [1] addresses T1, RSV F construct DS2 (stabilized prefusion F trimer) (human RSV A, Long strain (paper); …, stabilised).
T1 chain: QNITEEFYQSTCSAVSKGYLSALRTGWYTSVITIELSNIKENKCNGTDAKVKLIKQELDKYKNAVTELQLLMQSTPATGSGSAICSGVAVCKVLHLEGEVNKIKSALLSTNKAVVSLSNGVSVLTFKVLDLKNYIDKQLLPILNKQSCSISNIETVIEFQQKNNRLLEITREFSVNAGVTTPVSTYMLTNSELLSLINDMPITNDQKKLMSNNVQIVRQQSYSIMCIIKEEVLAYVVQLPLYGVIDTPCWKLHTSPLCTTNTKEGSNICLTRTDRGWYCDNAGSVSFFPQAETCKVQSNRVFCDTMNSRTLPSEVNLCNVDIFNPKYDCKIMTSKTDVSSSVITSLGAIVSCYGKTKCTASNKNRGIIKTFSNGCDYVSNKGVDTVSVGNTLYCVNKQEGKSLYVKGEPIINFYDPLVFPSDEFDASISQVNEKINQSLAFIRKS
Nature of the experiment: SPR. In general terms: SPR reads the build-up and loss of mass on a sensor chip optically.

The target of experiment [2] is T2, DS2-I53-50 nanoparticle (DS2-I53-50A co-assembled with I53-50B) (human RSV A, Long strain (paper); …, stabilised).
T2 chain: T1 chain
Nature of the experiment: SPR.

B1: D25 monoclonal antibody (IgG) (antibody, V domains shown)
VH: QVQLVQSGAEVKKPGSSVMVSCQASGGPLRNYIINWLRQAPGQGPEWMGGIIPVLGTVHYAPKFQGRVTITADESTDTAYIHLISLRSEDTAMYYCATETALVVSTTYLPHYFDNWGQGTLVTVSS
VL: DIQMTQSPSSLSAAVGDRVTITCQASQDIVNYLNWYQQKPGKAPKLLIYVASNLETGVPSRFSGSGSGTDFSLTISSLQPEDVATYYCQQYDNLPLTFGGGTKVEIK
For the molecule B1, the kon in experiment [1] amounted to 114000 M⁻¹ s⁻¹; in experiment [2] it was 1.39e+06 M⁻¹ s⁻¹.

B2: AM14 monoclonal antibody (IgG) (antibody, V domains shown)
VH: EVQLVESGGGVVQPGRSLRLSCAASGFSFSHYAMHWVRQAPGKGLEWVAVISYDGENTYYADSVKGRFSISRDNSKNTVSLQMNSLRPEDTALYYCARDRIVDDYYYYGMDVWGQGATVTVSS
VL: DIQMTQSPSSLSASVGDRVTITCQASQDIKKYLNWYHQKPGKVPELLMHDASNLETGVPSRFSGRGSGTDFTLTISSLQPEDIGTYYCQQYDNLPPLTFGGGTKVEIK
Turning to B2, the kon in experiment [1] was 438000 M⁻¹ s⁻¹; in experiment [2] it was 4.33e+06 M⁻¹ s⁻¹.

As usually defined, the kon is the second-order rate constant of association. Read a high kon as fast association.

Source of the values: article PMC12363979 (International Journal of Nanomedicine, 2025).
